Data from PMC7040017.

Target: 11-A-12 recombinant fibronectin fragment, containing the EDA domain

fold reduction of the EC50 of NF-κB reporter activity of the CTLL-2 reporter cell line in the presence of EDA (coated 11-A-12 fibronectin) against no EDA: 5 fold
Substance: F8 single-chain variable Fragment (scFv) linked to a single unit of murine GITRL (from UniProt Q7TS55 46-170)
